Where “and” joins values, the source holds several entries; their conditions need not be identical. Identical values can stand only once.
Target: human Leptin receptor (LepR) (human) (UniProt P48357)
Test: cell-based or functional assay

human Leptin receptor (LepR) (human), sequence (P48357 22-1165): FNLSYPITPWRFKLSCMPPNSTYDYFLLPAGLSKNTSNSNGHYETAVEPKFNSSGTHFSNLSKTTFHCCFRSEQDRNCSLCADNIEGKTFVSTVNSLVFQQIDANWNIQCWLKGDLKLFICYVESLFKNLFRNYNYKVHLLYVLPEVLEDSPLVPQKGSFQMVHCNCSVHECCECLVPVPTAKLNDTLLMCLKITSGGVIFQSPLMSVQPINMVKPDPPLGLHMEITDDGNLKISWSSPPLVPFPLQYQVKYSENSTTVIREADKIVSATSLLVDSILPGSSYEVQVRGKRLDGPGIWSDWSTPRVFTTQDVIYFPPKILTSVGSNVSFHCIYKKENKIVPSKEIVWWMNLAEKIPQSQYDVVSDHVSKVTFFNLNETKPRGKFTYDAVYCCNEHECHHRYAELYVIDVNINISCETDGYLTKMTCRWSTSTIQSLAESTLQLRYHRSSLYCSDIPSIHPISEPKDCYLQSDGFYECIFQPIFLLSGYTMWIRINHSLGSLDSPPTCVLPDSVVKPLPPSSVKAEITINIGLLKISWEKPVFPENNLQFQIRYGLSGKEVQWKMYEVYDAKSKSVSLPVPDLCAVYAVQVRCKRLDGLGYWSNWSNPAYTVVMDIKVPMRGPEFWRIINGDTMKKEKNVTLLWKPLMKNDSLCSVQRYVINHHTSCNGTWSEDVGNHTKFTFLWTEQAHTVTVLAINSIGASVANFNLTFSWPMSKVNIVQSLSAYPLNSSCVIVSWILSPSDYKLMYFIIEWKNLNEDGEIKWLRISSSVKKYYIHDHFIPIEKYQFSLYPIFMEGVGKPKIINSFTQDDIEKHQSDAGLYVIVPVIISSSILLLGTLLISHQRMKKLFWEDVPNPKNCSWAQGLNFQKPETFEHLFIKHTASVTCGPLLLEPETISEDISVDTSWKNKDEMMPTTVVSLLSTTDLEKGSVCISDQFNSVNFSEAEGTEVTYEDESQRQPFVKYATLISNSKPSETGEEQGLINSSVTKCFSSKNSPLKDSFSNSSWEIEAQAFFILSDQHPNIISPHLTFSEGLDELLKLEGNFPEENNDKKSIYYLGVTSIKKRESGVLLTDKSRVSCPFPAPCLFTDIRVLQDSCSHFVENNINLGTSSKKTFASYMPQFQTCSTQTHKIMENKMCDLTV

EC50, AlamarBlue proliferation of Baf3 stable cells overexpressing LepR: 129 ρM and 58.2 ρM
Substance: hLeptin (SEQ ID NO: 238) (from UniProt P41159 22-167) (ligand)

Reference: patent US20160159920A1
